{"source": "a protein production outcome set (Wang et al. 2014)", "data": [{"test": "label from the status in PepcDB records", "values": [{"sequence": "MGGDLRKCSFIKLEAHQNRVMTCVWCNKKGLLATSGNDGTIRVWNVTKKQYSLQQTCVFNRLEGDAEESLGSPSDPSFSPVSWSISGKYLAGALEKMVNIWQVNGGKGLVDIQPHWVSALAWPEEGPATTWSGESPELLLVGRMDGSLGLIEVVDVSTMHRRELEHCYRKDVSVTCIAWFSEDRPFAVGYFDGKLLMGTKEPLEKGGIVLIDAHKVKTIFFMLAFLFCLVFCVYVF", "protein production": "failed"}, {"sequence": "MGGEDDELKGLLGLPEEETELDNLTEFNTAHNKRISTLTIEEGNLDIQRPKRKRKNSRVTFSEDDEIINPEDVDPSVGRFRNMVQTAVVPVKKKRVEGPGSLGLEESGSRRMQNFAFSGGLYGGLPPTHSEAGSQPHGIHGTALIGGLPMPYPNLAPDVDLTPVVPSAVNMNPAPNPAVYNPEAVNEPKKKKYAKEAWPGKKPTPSLLI", "protein production": "not failed"}, {"sequence": "MGGFRFHQYQVVGRALPTENDEHPKIYRMKLWGRNEVCAKSKFWYFMRKLKKVKKSNGQMLAINEIFEKNPTTIKNYGIWLRYQSRTGYHNMYKEYRDTTLNGGVEQMYTEMASRHRVRFPCIQIIKTATVPAKLCKREITKQFHNSKIKFPLVFRKVRPPSRKLKTTYKASKPNLFM", "protein production": "failed"}, {"sequence": "MGGLFVTPAKAVKTTNYAEEIAALQPGTTPEEIMKSASQIAKQQHVKQDVILKQFYKEITADKAEGDRLAKESGMSIMGGSSGTKKLPTSAKGNIYYTNSYTAYYNHGHVGMYSAADKIVESVPSDGVRQIAYNARDVEDNSIVQTVSVSSSQKTAAADWAVSKVGDPYSFNFVNNRNTGHDGAKNCSKLLWSAFLLKAGIDIDSNGGLGVYPRDITSSSYTTTIMTIYLEHHHHHH", "protein production": "failed"}, {"sequence": "MGHHHHHHENLYFQSHERLSEKKIKNLLTSKQQRQQYEIKQRSMLRHLAELRRHSRFRRLCTKPASSSMPASTSSVDRRTTRRSTSQTSLSPSNSSGYGSVFGCEEHDVDKIPSLNGFAKLKRRRSSCVGAPTPNSKRSKNNMGVIAKRPPKGEYVVERIECVEMD", "protein production": "failed"}, {"sequence": "MGHHHHHHENLYFQSHINEQEREIEKLKRQMAEYGAIIKSLQFRQNSLEDTFIPDLTPKVEPSVNPTGCLLGSNAVHLMRDIKKECDYLGIPDPVPATKPTTQAQDDSQKKAKRSCFGRLFTGPFRRGTSAMKTADEYEKDDRLEELYAQLERDPDP", "protein production": "failed"}, {"sequence": "MGHHHHHHSHCDSDCLWVGLAGPQILPPCRSIVRTLHQHKLGRASWPSVQQGLQQSFLHTLDSYRILQKAAPFDRRATSLAWHPTHPSTVAVGSKGGDIMLWNFGIKDKPTFIKGIGAGGSITGLKFNPLNTNQFYASSMEGTTRLQDFKGNILRVFASSDTINIWFCSLDVSASSRMVVTGDNVGNVILLNMDGKELWNLRMHKKKVTHVALNPCCDWFLATASVDQTVKIWDLRQVRGKASFLYSLPHRHPVNAACFSPDGARLLTTDQKSEIRVYSASQWDCPLGLIPHPHRHFQHLTPIKAAWHPRYNLIVVGRYPDPNFKSCTPYELRTIDVFDGNSGKMMCQLYDPESSGISSLNEFNPMGDTLASAMGYHILIWSQEEARTRK", "protein production": "failed"}, {"sequence": "MGHHHHHHSHGHAAVIGWKDLAYAGVIDSGGVCENIIAIPNPGTEPLNVAAVLCEGLDVVVYKGPEISLSPTRARPLLGKLRQGTAALVMVGTKVSSPALSVDAEITDYVGIGAGSGRIRGVEMQVRAVSKTHGVRSGKVLISRP", "protein production": "failed"}, {"sequence": "MGHHHHHHSHGQLVRGKVCEYSTDGAYIDIGGKAPAFLPKREAALHAVLDLEAHLPKDEELEFLVIRDQNEDGQVTVSLRA", "protein production": "failed"}, {"sequence": "MGHHHHHHSHGSYANEISSSIIINRPAERLFDLWRKPETLPILMGHFASIEILNHTDSNWRINTPIGSLIEWQARIIDEKPGEYIHWRSLEGARVPNEGRLSFQPAASEAGTAVTLTIRYNPPGGLIGKKIGQMFDMFSRDMLTKTLYRFKKLAEDER", "protein production": "not failed"}, {"sequence": "MGHHHHHHSHMALRDLCVVLLNGQHLEVKCDVESTVGAVFNAVTSFANLEELTYFGLAYMKSKEFFFLDSETR", "protein production": "failed"}, {"sequence": "MGHHHHHHSHMATSRYEPVAEIGVGAYGTVYKARDPHSGHFVALKSVRVPNGGGGGGGLPISTVREVALLRRLEAFEHPNVVRLMDVCATSRTDREIKVTLVFEHVDQDLRTYLDKAPPPGLPAETIKDLMRQFLRGLDFLHANCIVHRDLKPENILVTSGGTVKLADFGLARIYSYQMALTPVVVTLWYRAPEVLLQSTYATPVDMWSVGCIFAEMFRRKPLFCGNSEADQLGKIFDLIGLPPEDDWPRDVSLPRGAFPPRGPRPVQSVVPEMEESGAQLLLEMLTFNPHKRISAFRALQHSYLHK", "protein production": "failed"}, {"sequence": "MGHHHHHHSHMEFIVDSVDKTMHIGRQLGSLVNKGDILCLTGDLGTGKTHISKGIAEGLGIDEHITSPTFNIVNEYHSGRLTLYHFDVYRVNDPDEIEAIGFDEYIFGDGVSLIEWANYIEELIPEEYIHIKIEKLPDMGENFRKITINGYGDRYNYIKEIKE", "protein production": "failed"}, {"sequence": "MGHHHHHHSHMFASCHCVPRGRRTMKMIHFRSSSVKSLSQEMRCTIRLLDDSEISCHIQRETKGQFLIDHICNYYSLLEKDYFGIRYVDPEKQRHWLEPNKSIFKQMKTHPPY", "protein production": "failed"}, {"sequence": "MGHHHHHHSHMGWDLTVKMLAGNEFQVSLSSSMSVSELKAQITQKIGVHAFQQRLAVHPSGVALQDRVPLASQGLGPGSTVLLVVDKSDEPLS", "protein production": "failed"}, {"sequence": "MGHHHHHHSHMLPVELVRHDVKKTDETSQVELMLQVDPDLFWFNGHFTGQPLLPGVAQLDWVMHYATTVLAQGWTFLSIENIKFQQPILPGKTLRLVLIWHAGKQSLTFSYSILEGDTERTASSGKIKLTPIMEDNPCQ", "protein production": "not failed"}, {"sequence": "MGHHHHHHSHMPQFSPSYSFPVQIYYEDTDFSGVVYHPNFLKYFERAREHVIGAEQLRNLWQQQQLGFAVYRSDMLCHEGVEFADIIDIRTKFYFESKYRTVWHQEIWRPNGKKPAVTATIEMVCMNQARQLAPMPAELITQLSLGM", "protein production": "not failed"}, {"sequence": "MGHHHHHHSHMSNAEDIRDLVVTFLEGLRKRSKYVVALQDNPNPAGEESGFLSFAKGDLIILDHDTGEQVMNSGWANGINERTKQRGDFPTDCVYVMPTVTMPPREIVA", "protein production": "failed"}, {"sequence": "MGHHHHHHSHMSPFLRIGLSNFDCGSCQSCQGEAVNPYCAVLVKEYVESENGQMYIQKKPTMYPPWDSTFDAHINKGRVMQIIVKGKNVDLISETTVELYSLAERCRKNNGKTEIWLELKPQGRMLMNARYFLEMSDTK", "protein production": "not failed"}, {"sequence": "MGHHHHHHSHMTCGAWEMKERLGTGGFGNVIRWHNQETGEQIAIKQCRQELSPRNRERWCLEIQIMRRLTHPNVVAARDVPEGMQNLAPNDLPLLAMEYCQGGDLRKYLNQFENCCGLREGAILTLLSDIASALRYLHENRIIHRD", "protein production": "failed"}, {"sequence": "MGHHHHHHSHNQEHQLGNNTLSSHLQIDKMTDNKTGEVLISENVVASIQPAEGSFEGDLKVPRMEEKEALVPIQKATDSFHTELHPRVAFWIIKLPRRRSHQDALE", "protein production": "failed"}, {"sequence": "MGHHHHHHSHSGNIRLETAAETQAFAEELGRHLEAGDVIILDGPLGAGKTTFTQGLARGLNVKGRVTSPTFVIAREHKSLSGGPSLVHVDAYRLIDDAAGATDPIGALDSLDLETELEDAVVVAEWGGGLVEQITDSYLLITFDRT", "protein production": "not failed"}, {"sequence": "MGHHHHHHSHSLDSQKGQLVRGKVCEYSTDGAYIDIGGKAPAFLPKREAALHAVLDLEAHLPKDEELEFLVIRDQNEDGQVTVSLRALALEQAWTRVAELQEG", "protein production": "not failed"}, {"sequence": "MGHHKAMPYADVAAFIIELRKREAVAATALEFTILTAARSGETLGAKWHEIDWKDKIWTVPAERMKAAREHRVPLSSRTITILKKLAEFGSDENSFVFPGQKPGKPLSVMAMDMVLRRMEVDVTVHGFRSSFRDWCGEVSNFPRDVAEAALAHLEHHHHHH", "protein production": "not failed"}, {"sequence": "MGIFETMSQVRRLPQALAAAVATPPALAGSGTLRGLIGLDDSLGEAVTTRAEALTIPAVLRARNLLSTTVARTPLVCDGTLPPFVPVAAPPGAATMQTPFHRMLATADDLLFNGVACWALDRDESGTCIGAIHIPLDTWQIEENTVRVNGKAVDPMEVCIFVGIHGGLLTHASETFTDARNLVRAAARVAQNPAALIELRQTNNAQLSPDDVDRIINGYVAARRGRNSGVGFSSSGLEVHEHEMAKENLLIEGRNAAAVDVARAMNVPAAFIDATVGGTSLSYQNAASRMIELVTFGVEPLMSAIEARLNQPDMHADHLANPLKFDPAALLDAIPTTPTIGAQPHGENS", "protein production": "not failed"}, {"sequence": "MGIHKPKFYAVRAGRDKGVFSSWEECRKAIYGFSGAVYRSFPTLEEAQAWFKGETLSDPLKAEDDSLRDDRTEYDVYTDGSYVNGQYAWAYAFVKDGKVHYEDADVGKNPAAATMRNVAGEIAAALYAVKKASQLGVKIRILHDYAGIAFWATGEWKAKNEFTQAYAKLMNQYRGIYSFEKVKAHSGNEFNDYVDMKAKSALGIRDLEHHHHHH", "protein production": "failed"}, {"sequence": "MGIHLFWDSRVPVGLSRPVSEELSAVLEMPVSRIDDGIFPLEGFDPVRNQYDAVKVLLKLDMFRRRMPQIFKPADMDLEFYNKFNHLHEKILLVTPGDLYEPLADFVFGLAYPKLGVAIVSPHRLQNEFYGKYADDSALIDRIVKEGAHEIGHLFGLGHCDNPGCIMYCPRNLDELDRKRKYFCGKCRVQLNGDTLEDDLFSLEHHHHHH", "protein production": "not failed"}, {"sequence": "MGIIAWIVFGFVIGLIARAVVPGKQSLGFVMTTLLGIAGSLIGGLVASAFAGTSGTTFQTAGFIGSLVGAIVLLVIAGMVTTPRRRTV", "protein production": "failed"}, {"sequence": "MGIMPRKVLAIKNFKERFDLLPKLKGVIAEKQPDILVVVGNILKNEALEKEYERAHLARREPNRKVIHENEHYIIETLDKFFREIGELGVKTFVVPGKNDAPLKIFLRAAYEAETAYPNIRVLHEGFAGWRGEFEVIGFGGLLTEHEFEEDFVLKYPRWYVEYILKFVNELKPRRLVTIFYTPPIGEFVDRTPEDPKHHGSAVVNTIIKSLNPEVAIVGHVGKGHELVGNTIVVNPGEFEEGRYAFLDLTQHKIKLEQFS", "protein production": "not failed"}, {"sequence": "MGIRHIALFRWNDTVTPDQVEQVITALSKLPAAIPELKNYAFGADLGLAAGNYDFAVVADLDGEDGFRAYQDHPDHRAALAIIAPMLADRVAVQFAL", "protein production": "not failed"}, {"sequence": "MGIRVKRRQHQHLLESLVHSTAKQQGDFTKTAELATELLCQNLAVSLVSIWIFSADQGTQSLVAQFGSMALQDTYRPSLLHTVPRYLNELKNYRHIDAGNTLIDPRLTELVDSYFIPRQILSSLDVGIRINGHLEGVLCIERAQVTHHWHDSEIHLACQMADQLALTLATKHAYDKEERLSLFRCAIEQSRQMSMLEHHHHHH", "protein production": "not failed"}, {"sequence": "MGKEITENIIDVEFKCNHFKMNGYIGNNNIYRSNKNLQHIYINKRFVKSKIIIDAITESYKSIIPIGKHAVCFLNIEVDPSCIDVNIHPNKLEIKFEKEQEVYIELRDFLKVKLIHSNLIGLEHHHHHH", "protein production": "failed"}, {"sequence": "MGKENLYVVLPSYNEEANIGKLINEWNVQFKDLEARGIKLEIIIVNDGSTDNTLAVAEAFSKHNDNVVVIDHGVNKGLGEGLNTGINYVLSQKQKGYMCLMDGDMTHEPKYIFSMLDKLQEEKLDCVIASRYRRGAKVEGLSLFRKFLSFGARVLYTIRLGIPNVRDYTCGYRLYKTSVLEKLHKVYGKRIVKETGFACMMELIVKVSKENFKIGEVPFVLKYQLKGGESKMKVGKTIKRSLLLLRVYKLEHHHHHH", "protein production": "not failed"}, {"sequence": "MGKIFCIVQARMGSERLQGKVIKPILKKPMVIYTLDRLKKSKYIDKIVLATSSMERETPLVESCEEYGYDVFKGSEANVLKRYEQAAEKYGANIEDAVIRVTGDCPLIDPIIVDNVVTKFLSSDYDYVRLDVPNTFVRGFDVEIFSMKALKTVNSLINGGKIPKEEADMYKEHVTLYMYKHPNEFKVGYVKGDEFYSKDYRLCVDTKEDFELVKNIYEHFNDEFVSSKNVINYLDRNSEIAQINNDIKQKEVLEHHHHHH", "protein production": "not failed"}]}]}
